The text below walks through data of PMC10931773.

T1: C-reactive protein (recombinant human CRP) (human) (UniProt P02741)
T1 sequence: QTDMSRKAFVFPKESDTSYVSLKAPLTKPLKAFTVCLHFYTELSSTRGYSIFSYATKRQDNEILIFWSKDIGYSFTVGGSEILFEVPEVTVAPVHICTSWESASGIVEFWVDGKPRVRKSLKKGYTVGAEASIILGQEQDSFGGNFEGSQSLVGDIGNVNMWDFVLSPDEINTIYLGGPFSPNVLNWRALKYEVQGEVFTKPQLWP

B1: anti-CRP single-chain variable fragment (scFv) (scFv, V domains shown)
VH: QVQLQQSGAELVKPGASVKLSCTASGFNIKDYYMHWVKQRTEQGLEWIGRIDPEDGETKYAPKFQGKATITADTSSNTAYLQLSSLTSEDTAVYYCARGYYGSEAMDYWGQGTSLTVSS
VL: SIVMTQSHKFMSTSVGDRVSITCKASQDVNTAVAWYQQKPGQSPKLLIYWASTRHTGVPDRFTGSGFGTDYTLTISSVQAEDLALYYCQQHYSTPWTFGGGTKLEIK
B2: anti-CRP scFv-SpyTag (scFv, V domains shown)
VH: QVQLQQSGAELVKPGASVKLSCTASGFNIKDYYMHWVKQRTEQGLEWIGRIDPEDGETKYAPKFQGKATITADTSSNTAYLQLSSLTSEDTAVYYCARGYYGSEAMDYWGQGTSLTVSS
VL: SIVMTQSHKFMSTSVGDRVSITCKASQDVNTAVAWYQQKPGQSPKLLIYWASTRHTGVPDRFTGSGFGTDYTLTISSVQAEDLALYYCQQHYSTPWTFGGGTKLEIK
B3: monovalent antibody-enzyme complex (anti-CRP scFv-ST joined to GDH-SC) (complex)
VH: QVQLQQSGAELVKPGASVKLSCTASGFNIKDYYMHWVKQRTEQGLEWIGRIDPEDGETKYAPKFQGKATITADTSSNTAYLQLSSLTSEDTAVYYCARGYYGSEAMDYWGQGTSLTVSS
VL: SIVMTQSHKFMSTSVGDRVSITCKASQDVNTAVAWYQQKPGQSPKLLIYWASTRHTGVPDRFTGSGFGTDYTLTISSVQAEDLALYYCQQHYSTPWTFGGGTKLEIK

The target in this assay is T1, C-reactive protein (recombinant human CRP) (human). Kind of assay: SPR; Biacore T200; CRP immobilised on a CM5 chip by amine coupling (1074 RU); antibodies 0.50-75 nM injected at 30 µL/min, association and dissociation 120 s; 1:1 Langmuir global fit. In general terms: Surface plasmon resonance follows binding to a sensor surface in real time, without labels.
What is called Kd is a measure of binding affinity in units of concentration. The koff is the rate constant with which the complex falls apart. As a reminder, the kon is the second-order rate constant of association. Regarding B1, the Kd is 4.8 nM, the koff is 0.0016 s⁻¹ and the kon is 350000 M⁻¹ s⁻¹.
The like results for B2 were, in that order, 5 nM, 0.0017 s⁻¹ and 340000 M⁻¹ s⁻¹.
The like results for B3 were, in that order, 28.7 nM, 0.0019 s⁻¹ and 67000 M⁻¹ s⁻¹.
